According to PMC6150290:
pKd: −log10 of the molar value.

Experiments:
Assay in all cases: EMSA
Conditions in all cases: EMSA: 0.5 nM DNA duplex, 20 uL, 10 mM Tris-HCl pH 7.6, 5 mM DTT, 10% (component cut off in material), no NaCl; temperature not in material
[1] = tested on: OGT (wild type) (Escherichia coli)
[2] = tested on: S134P OGT (Escherichia coli)
C145S hAGT (human) = tested on: C145S hAGT (human)

Control (G-C)
pKd [1]: 5.91 | pKd [2]: 6.07 | pKd (C145S hAGT (human)): 4.97
